For this test, the target named is T1, HLA-B*44:05 (human).
T1 construct: also called peptide-receptive MHC class I molecule
As to the kind of experiment: UV peptide exchange, anti-b2m ELISA. On the procedure: Only peptide candidates that can effectively bind and stabilize the peptide-receptive MHC molecules prevent dissociation of the MHC complexes. To determine the yield of the exchange reaction, an ELISA was performed based on the detection of the light chain (β2m) of stabilized MHC complexes. The assay was performed as generally described in Rodenko et al. (Rodenko et al., 2006)
96 well MAXISorp plates (NUNC) were coated over night with 2 ug/ml streptavidin in PBS at room temperature, washed 4× and blocked for 1 h at 37° C. in 2% BSA containing blocking buffer. […] Peptide-MHC monomers of the UV-exchange reaction were diluted 100-fold in blocking buffer. Samples were incubated for 1 h at 37° C., washed four times, incubated with 2 ug/ml HRP conjugated anti-β2m for 1 h at 37° C., washed again and detected with TMB solution that is stopped with […]. Absorption was measured at 450 nm.
In general terms: ELISA stands for enzyme-linked immunosorbent assay.

Where only a bound is given, the exact number is not on record here.

For LEEPMPFFY, the peptide exchange yield lay within 10 to 20%.

In turn, AEHDMKSVL had a peptide exchange yield of 50 to 75%.

In the case of DEDGKIVGY, the peptide exchange yield was 20 to 50%.

Molecule DENDAGNLITF had a peptide exchange yield of 50 to 75%.

Turning to EEHSSKLQTSL, the peptide exchange yield was > 75%.

For GETQQHIQL, the peptide exchange yield lay within 50 to 75%.

SEKWFRMGF showed a peptide exchange yield of 50 to 75%.

For the molecule KESDAGRYY, the peptide exchange yield was 50 to 75%.

For the molecule KESDAGKYY, the peptide exchange yield fell in the range of 50 to 75%.

HENLIEDF: the peptide exchange yield is 50 to 75%.

As to QEIDRGQYI, the peptide exchange yield was > 75%.

SEIYQPRGF had a peptide exchange yield of 50 to 75%.

The molecule MEGAALLKIF displayed a peptide exchange yield of 50 to 75%.

Take ALNGDIYVW: the peptide exchange yield is > 75%.

TEHSGIYSC: the peptide exchange yield is 20 to 50%.

In the case of TEDARHPESW, the peptide exchange yield was > 75%.

MEHSDENIQFW had a peptide exchange yield of 20 to 50%.

In turn, GESSEVKAVL yielded a peptide exchange yield of 50 to 75%.

RENPGMFSW registered a peptide exchange yield of 50 to 75%.

With IEAPKLMVV, the peptide exchange yield was in the range of 10 to 20%.

As for AEIATTGQLY, the peptide exchange yield fell in the range of 50 to 75%.

In turn, EEVQDGKVI came in with a peptide exchange yield of 20 to 50%.

EEGPSVPKIY registered a peptide exchange yield of 20 to 50%.

As to EAYDIELNKW, the peptide exchange yield is 50 to 75%.

In the case of EEIFAHLGL, the peptide exchange yield fell in the range of 50 to 75%.

NESDRLVYF had a peptide exchange yield of 50 to 75%.

Turning to EEQDFINNRY, the peptide exchange yield is > 75%.

As to EELHAALSEW, the peptide exchange yield is > 75%.

EEIEAHIAL returned a peptide exchange yield of 50 to 75%.

As to AEFVPKADLL, the peptide exchange yield is 50 to 75%.

AEDEDGKIVGY registered a peptide exchange yield of 20 to 50%.

In turn, MEELRMLSF returned a peptide exchange yield of 50 to 75%.

For the molecule EEHIFSAF, the peptide exchange yield is 20 to 50%.

With NEAGEMIKHY, the peptide exchange yield lay in the range of 20 to 50%.

On to HEIIIRSHW, for which the peptide exchange yield fell in the range of 50 to 75%.

Consider QEAPRPASSL, for which the peptide exchange yield was 50 to 75%.

MEAELVRRI came in with a peptide exchange yield of 50 to 75%.

EELRMLSF yielded a peptide exchange yield of 20 to 50%.

WEVVHTVF returned a peptide exchange yield of 20 to 50%.

Molecule IEAYLERIGY came in with a peptide exchange yield of 50 to 75%.

As for EEQLLQKVM, the peptide exchange yield was > 75%.

Regarding NEAGEVSKHF, the peptide exchange yield lay in the range of 50 to 75%.

Regarding EKGLISAF, the peptide exchange yield was in the range of 20 to 50%.

On to KEHNSSVPWSS, for which the peptide exchange yield is > 75%.

For the molecule AETENRYCV, the peptide exchange yield fell in the range of 50 to 75%.

HEVAQDDHL showed a peptide exchange yield of 20 to 50%.

Molecule IEIKDRLQL yielded a peptide exchange yield of 50 to 75%.

Take RMLSFQQMTW: the peptide exchange yield lay in the range of 20 to 50%.

For QELFLHPVL, the peptide exchange yield is > 75%.

For the molecule TEANVQALF, the peptide exchange yield is > 75%.

The molecule AETEPERHLG registered a peptide exchange yield of 20 to 50%.

Regarding VEEERYTGQW, the peptide exchange yield was in the range of 50 to 75%.

As to KEAPNIVTL, the peptide exchange yield is > 75%.

With REMFVFKDQW, the peptide exchange yield was > 75%.

With LEALLSDLF, the peptide exchange yield was 50 to 75%.

On to IEIILLSGSL, for which the peptide exchange yield is > 75%.

EEMPEEIHL gave a peptide exchange yield of 50 to 75%.

TEQALRLSV: the peptide exchange yield is > 75%.

AESDFSNNML showed a peptide exchange yield of 50 to 75%.

For SQDVAGTTF, the peptide exchange yield was 20 to 50%.

For SEHSLEGQKF, the peptide exchange yield fell in the range of 50 to 75%.

In the case of SEVFHVSEA, the peptide exchange yield was 20 to 50%.

Regarding TELQIPSF, the peptide exchange yield lay within 20 to 50%.

On to KEMQVTISQQL, for which the peptide exchange yield is > 75%.
